{
  "source": "paper PMC12561415",
  "about": "“ACSS2/AATF Drives Soluble FasL‐Mediated CD8^+ T Cell Apoptosis in Pancreatic Neuroendocrine Tumors” (Advanced Science, 2025)",
  "binders": {"B1": {"name": "Recombinant human AATF (natural protein, UniProt Q9NY61 1-560, looked up)", "chain": "MAGPQPLALQLEQLLNPRPSEADPEADPEEATAARVIDRFDEGEDGEGDFLVVGSIRKLASASLLDTDKRYCGKTTSRKAWNEDHWEQTLPGSSDEEISDEEGSGDEDSEGLGLEEYDEDDLGAAEEQECGDHRESKKSRSHSAKTPGFSVQSISDFEKFTKGMDDLGSSEEEEDEESGMEEGDDAEDSQGESEEDRAGDRNSEDDGVVMTFSSVKVSEEVEKGRAVKNQIALWDQLLEGRIKLQKALLTTNQLPQPDVFPLFKDKGGPEFSSALKNSHKALKALLRSLVGLQEELLFQYPDTRYLVDGTKPNAGSEEISSEDDELVEEKKQQRRRVPAKRKLEMEDYPSFMAKRFADFTVYRNRTLQKWHDKTKLASGKLGKGFGAFERSILTQIDHILMDKERLLRRTQTKRSVYRVLGKPEPAAQPVPESLPGEPEILPQAPANAHLKDLDEEIFDDDDFYHQLLRELIERKTSSLDPNDQVAMGRQWLAIQKLRSKIHKKVDRKASKGRKLRFHVLSKLLSFMAPIDHTTMNDDARTELYRSLFGQLHPPDEGHGD", "notes": "Recombinant human AATF, the analyte in SPR; also called Che-1"}},
  "molecular_target": "T1, Recombinant human ACSS2 (human, UniProt Q9NR19 1-701)",
  "T1 construct": "Recombinant human ACSS2, immobilised on a CM5 chip for SPR",
  "T1 sequence (Q9NR19 whole entry)": "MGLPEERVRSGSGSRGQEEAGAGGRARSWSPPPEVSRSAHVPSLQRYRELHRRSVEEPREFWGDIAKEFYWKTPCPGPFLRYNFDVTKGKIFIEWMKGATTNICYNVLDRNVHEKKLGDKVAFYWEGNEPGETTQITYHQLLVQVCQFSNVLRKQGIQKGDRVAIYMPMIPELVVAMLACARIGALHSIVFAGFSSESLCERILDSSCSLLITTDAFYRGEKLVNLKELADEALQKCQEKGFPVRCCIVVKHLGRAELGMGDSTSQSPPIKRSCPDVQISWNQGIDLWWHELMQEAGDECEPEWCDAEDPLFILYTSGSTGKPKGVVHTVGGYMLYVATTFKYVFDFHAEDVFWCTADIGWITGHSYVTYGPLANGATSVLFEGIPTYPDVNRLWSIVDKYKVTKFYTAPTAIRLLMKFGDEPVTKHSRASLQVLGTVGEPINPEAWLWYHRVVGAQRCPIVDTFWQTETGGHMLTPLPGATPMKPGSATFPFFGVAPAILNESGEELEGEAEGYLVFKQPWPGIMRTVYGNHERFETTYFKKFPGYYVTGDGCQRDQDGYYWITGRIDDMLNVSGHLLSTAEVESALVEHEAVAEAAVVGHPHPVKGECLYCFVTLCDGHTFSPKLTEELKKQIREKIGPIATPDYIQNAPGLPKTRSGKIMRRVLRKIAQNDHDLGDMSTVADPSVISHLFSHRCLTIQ",
  "test": "SPR; Biacore 8K, 25 °C, HBS-EP running buffer; ACSS2 amine-coupled to a CM5 chip (5 µg/mL in 10 mM sodium acetate pH 5.5); AATF injected at 12.5-400 nM; multi-cycle, 120 s association, 120 s dissociation, 30 µL/min",
  "conditions": "both partners purified",
  "data": [
    {"binder": "B1", "values": [
      {"measurement": "Kd", "value": "33.3 ± 1.7", "unit": "nM"}
    ]}
  ]
}
